Ten molecules from patent publication US20200377563A1 (Pieris, published 2020) can be followed below.

To fix the notation:
B1: human IL-23 (ligand)
chain 1: RAVPGGSSPAWTQCQQLSQKLCTLAWSAHPLVGHMDLREEGDEETTNDVPHIQCGDGCDPQGLRDNSQFCLQRIHQGLIFYEKLLGSDIFTGEPSLLPDSPVGQLHASLLGLSQLLQPEGHHWETQQIPSLSPSQPWQRLLLRFKILRSLQAFVAVAARVFAHGAATLSP
chain 2: IWELKKDVYVVELDWYPDAPGEMVVLTCDTPEEDGITWTLDQSSEVLGSGKTLTIQVKEFGDAGQYTCHKGGEVLSHSLLLLHKKEDGIWSTDILKDQKEPKNKTFLRCEAKNYSGRFTCWWLTTISTDLTFSVKSSRGSSDPQGVTCGAATLSAERVRGDNKEYEYSVECQEDSACPAAEESLPIEVMVDAVHKLKYENYTSSFFIRDIIKPDPPKNLQLKPLKNSRQVEVSWEYPDTWSTPHSYFSLTFCVQVQGKSKREKKDRVFTDKTSATVICRKNASISVRAQDRYYSSSWSEWASVPCS
notes: Heterodimer of p19 and p40; Biotinylated in the ELISA formats; also called hIL-23; hIL23
B2: benchmark antibody 2 (antibody, human IgG4, kappa, V domains shown)
VH: QVQLVQSGAEVKKPGSSVKVSCKASGYSFTDYHISWVRQAPGQGLEWMGVINPEYGTTDYNQRFKGRVTITADESTSTAYMELSSLRSEDTAVYYCARYDYFTGTGAYWGQGTLVTVSS
VL: DIVMTQTPLSLSVTPGQPASISCRSSQSLKHSRGNTFLHWYLQKPGQSPQLLIYKVSNRFIGVPDRFSGSGSGTDFTLKISRVEAEDVGVYYCSQSTHYPFTFGQGTKLEIKR
B3: fusion protein of SEQ ID NO: 7 (designed binder)
chain: QDSTSDLIPAPPLSKVPLQQNFQDNQFHGKWYVVGEAGNLLLREDKDPRKMTATIYELKEDKSYDVTRVEFGAKTYKYQIGTFVPGSQPGEFTLGGIESMPGMTSFLVRVVSTNYNQHAIVFFKYVYQNREYFEITLYGRTKELTSELKENFIRFSKSLGLPENHIVFPVPIDQAIDGSGGGGSLAEAKEAANAELDSYGVSDFYKRLIDKAKTVEGVEALKDAILAALPSAWSHPQFEK
B4: cynomolgus monkey IL-17A (ligand)
chain: GIAIPRNSGCPNSEDKNFPRTVMVNLNIHNRNTSTNPKRSSDYYNRSTSPWNLHRNEDPERYPSVIWEAKCRHLGCVKADGNVDYHMNSVPIQQEILVLRREPRHCPNSFRLEKILVSVGCTCVTPIVHHVA
notes: also called cIL-17A
B5: negative control SEQ ID NO: 43 (other)
chain: QDSTSDLIPAPPLSKVPLQQNFQDNQFQGKWYVVGLAGNAILREDKDPQKMYATIYELKEDKSYNVTSVLFRKKKCDYWIRTFVPGCQPGEFTLGNIKSYPGLTSYLVRVVSTNYNQHAMVFFKKVSQNREYFKITLYGRTKELTSELKENFIRFSKSLGLPENHIVFPVPIDQCIDG
B6: lipocalin mutein SEQ ID NO: 46 (designed binder)
chain: QDSTSDLIPAPPLSKVPLQQNFQDNQFHGKWYVVGEAGNLLLREDKDPRKMTATIYELREDKSYDVTRVEFGVKTYKYQIGTFVPGSQPGEFTLGGIKSMPGMTSFLVRVVSTDYNQHAMVFFKYVYQNREYFEITLYGRTKELTSELKENFIRFSKSLGLPENHIVFPVPIDQAIDG
B7: lipocalin mutein SEQ ID NO: 45 (designed binder)
chain: B6 chain with L41I, R59K, Y76R, Q79R, D114N
B8: marmoset IL-17A (ligand)
chain: GIASPQNPGCPNAEDKNFPRTVMVNLNIRNRNTNSKRASDYYNRSSSPWNLHRNEDPERYPSVIWEAKCRHLGCVDADGNVDYHMNSVPIQQEILVLRREPRHCTNSFRLEKMLVSVGCTCVTPIVRHVA
notes: also called marmoset monkey IL-17A
B9: mouse IL-23 (ligand)
chain 1: VPRSSSPDWAQCQQLSRNLCMLAWNAHAPAGHMNLLREEEDEETKNNVPRIQCEDGCDPQGLKDNSQFCLQRIRQGLAFYKHLLDSDIFKGEPALLPDSPMEQLHTSLLGLSQLLQPEDHPRETQQMPSLSSSQQWQRPLLRSKILRSLQAFLAIAARVFAHGAATLTEPLVPTA
chain 2: MWELEKDVYVVEVDWTPDAPGETVNLTCDTPEEDDITWTSDQRHGVIGSGKTLTITVKEFLDAGQYTCHKGGETLSHSHLLLHKKENGIWSTEILKNFKNKTFLKCEAPNYSGRFTCSWLVQRNMDLKFNIKSSSSSPDSRAVTCGMASLSAEKVTLDQRDYEKYSVSCQEDVTCPTAEETLPIELALEARQQNKYENYSTSFFIRDIIKPDPPKNLQMKPLKNSQVEVSWEYPDSWSTPHSYFSLKFFVRIQRKKEKMKETEEGCNQKGAFLVEKTSTEVQCKGGNVCVQAQDRYYNSSCSKWACVPCRVRS
notes: also called mIL-23
B10: benchmark 3 (antibody, human IgG1, kappa, V domains shown)
VH: QVQLVQSGAEVKKPGASVKVSCKVSGKTFWSYGINWVRQAPGKGLEWMGYIYIGTGYTEPNPKYKGRVTMTEDTSTDTAYMELSSLRSEDTAVYYCATIGGYYGNFDQWGQGTTVTVSS
VL: DVVMTQSPLSLPVTLGQPASISCRSSQSLLISGGKTYLNWFQQRPGQSPRRLIYLVSKLDQGVPDRFSGSGSGTDFTLKISRVEAEDVGVYYCWQGTYFPLTFGQGTKLEIKR

Changes are numbered by the printed parent chain. “And” between values parts separate entries of the source, which are not always exact repeats. Equal entries are not always repeated. Where two headings read alike, the source gives them in different places.

Assay [1] has as its target T1, lipocalin mutein of SEQ ID NO: 2.
T1 construct: Mutein of human lipocalin 2 (NGAL); Also used as negative control in the IL-17A cell assay; also called hNGAL mutein
Kind of assay: solution competition ELISA: 0.5 nM SEQ ID NO: 2 pre-incubated with varied ligand, free mutein captured on immobilised biotinylated hIL-23. In general terms: ELISA stands for enzyme-linked immunosorbent assay.

In the next assay the target is human IL-17A (human, UniProt Q16552 24-155, limits assumed). Kind of assay: cell-based or functional assay.
The target in assay [2] is B1. Description: SPR (Biacore T200), biotinylated binder captured on CAP chip, hIL-23 as analyte, buffer with 350 mM NaCl. The procedure: To this end, undiluted Biotin CAPture Reagent was applied at a flow rate of 2 μL/min for 300 s. […] The reference channel was loaded with Biotin CAPture Reagent only.
Applying a flow rate of 30 μL/min, a single cycle kinetics approach was used with a sample contact time of 300 s and a dissociation time of 4000 s or 7200 s. After ligand immobilization, all 5 concentrations were applied consecutively in ascending order before the dissociation was monitored. All measurements were performed at 25° C.
For orientation: SPR reads the build-up and loss of mass on a sensor chip optically.

The target in assay [3] is B1. Kind of assay: competition ELISA (MSD), biotinylated hIL-23 pre-incubated with binder, free hIL-23 captured on coated hIL-23R. As for the experimental part:
(§1) All incubation steps were performed with shaking 300 rpm, and the plate was washed after each incubation step with 80 μl PBS/0.05% Tween 20 for five times using a Biotek EL405 select CW washer. […] After washing, the receptor-coated wells were blocked with 60 μl PBS-T/BSA for 1 h at room temperature.
(§2) After washing, 60 μl MSD Read Buffer T (2×) was added to each well and the plate was read within 15 min.
(§3) The resulting ECL signal was measured using the SECTOR Imager 2400 (Meso Scale Discovery).

For assay [4], the target named is T2, lipocalin mutein of SEQ ID NO: 1.
T2 construct: Mutein of human tear lipocalin; also called Tlc mutein
Kind of assay: solution competition ELISA: 0.25 nM SEQ ID NO: 1 pre-incubated with varied ligand, free mutein captured on immobilised biotinylated hIL-17A. The procedure: In the following detailed experimental protocol, incubation and washing steps were performed as described above in the competition ELISA protocol. A 384-well plate suitable for fluorescence measurements (Greiner FLUOTRAC™ 600, black flat bottom, high-binding) was coated with 20 μl of Neutravidin at a concentration of 5 μg/ml in PBS over night at 4° C. After washing, the Neutravidin-coated wells were blocked with 100 μl blocking buffer (PBS-T/BSA) for 1h at room temperature.

The target of assay [5] is B1. Kind of assay: competition ELISA (MSD): biotinylated hIL-23 tracer pre-incubated with the titrated control, free hIL-23 captured on coated soluble hIL-23R. As for the experimental part: as §1, §2, §3
The target in assay [6] is B1. Kind of assay: cell-based or functional assay.
Assay [7] addresses B1. Description: SPR (Biacore T200), hIL-23 amine-coupled on chip, mutein as analyte.
The target in assay [8] is B1. Kind of assay: competition ELISA (MSD), biotinylated hIL-23 pre-incubated with binder, free hIL-23 captured on coated hIL-23R. This is another data set of the same source.

One may read the IC50 as the point on the concentration scale where inhibition reaches its midpoint. For orientation: Kd means the concentration at which binding is half-saturated. A word on the koff: it is the rate constant with which the complex falls apart. Higher therefore signals fast dissociation. For orientation: kon means the second-order rate constant of association. Higher therefore signals fast association.

T2 sequence (chain, as listed by the source): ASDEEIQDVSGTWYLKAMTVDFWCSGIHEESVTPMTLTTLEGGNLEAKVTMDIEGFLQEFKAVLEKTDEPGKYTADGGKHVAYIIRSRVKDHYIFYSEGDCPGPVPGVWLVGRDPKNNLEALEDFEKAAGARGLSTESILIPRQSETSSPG

B1 showed an IC50 in [1] of 0.9 nM.
With B2, in the assay with human IL-17A, the “IL-17A-induced G-CSF secretion in U87-MG cells, EC50, average” value came out at 0.12 nM; the “IL-17A-induced G-CSF secretion in U87-MG cells, EC50, single experiment” value was 0.14 nM and 0.1 nM.
In the assay with human IL-23 [2], B3 displayed a Kd of 2.4 nM. The molecule also returned an IC50 with human IL-23 [3] of 1.11 nM.
On to B4, for which the IC50 in assay [4] came to 0.1 nM. In other words, the sub-nanomolar range.
As for B5, the binding result in the assay with human IL-23 [5] is listed as “no binding”.
B6: the “hIL-23-induced proliferation of Ba/F3 cells with hIL-23R and hIL-12Rβ1, EC50” value with human IL-23 [6] was found to be 5.4 nM. In the assay with human IL-23 [7], binding was characterised by a dissociation constant (Kd) of 0.6 nM, the koff came out at 4e-05 s⁻¹ and the kon amounted to 70000 M⁻¹ s⁻¹. Besides, the IC50 with human IL-23 [8] is 1.1 nM.
Take B7: the “hIL-23-induced proliferation of Ba/F3 cells with hIL-23R and hIL-12Rβ1, EC50” value in the assay with human IL-23 [6] came out at 3.7 nM. Besides, in the assay with human IL-23 [7], the Kd turned out to be 0.1 nM, the koff was found to be 3e-05 s⁻¹ and the kon was determined as 300000 M⁻¹ s⁻¹. Moreover, the IC50 in the assay with human IL-23 [8] was 0.1 nM.
B8 yielded an IC50 in assay [4] of 0.2 nM.
In [1], B9 yielded an IC50 of 0.5 nM.
As to B10, in the assay with human IL-23 [6], the “hIL-23-induced proliferation of Ba/F3 cells with hIL-23R and hIL-12Rβ1, EC50, average” value stood at 3 nM; the “hIL-23-induced proliferation of Ba/F3 cells, EC50, single experiment” value is 3.1 nM and 2.9 nM.
